Results as given in the supplement of paper PMC7877785.
± gives the uncertainty stated by the source.

Assay: self-splicing fitness, log relative to wild type (ln ratio); higher = more splicing; Tetrahymena group I intron in knt gene, E. coli kanamycin selection, DiMSum; sequences stand for … in CUCUCU…GGAGGGAAAAGUUAUCAGGCAUGCACCUGGUAGCUAGUCUUUAAACCAAUAGAUUGCAUCGGUUUAAAAGGCAAGACCGUCAAAUUGCGGGAAAGGGGUCAACAGCCGUUCAGUACCAAGUCUCAGGGGAAACUUUGAGAUGGCCUUGCAAAGGGUAUGGUAAUAAGCUGACGGACAUGGUCCUAACCACGCAGCCAAGUCCUAAGUCAACAGAUCUUCUGUUGAUAUGGAUGCAGUUCACAGACUAAAUGUCGGUCGGGGAAGAUGUAUUCUUCUCAUAAGAUAUAGUCGGACCUCUCCUUAAUGGGAGCUAGCGGAUGAAGUGAUGCAACACUGGAGCCGCUGGGAACUAAUUUGUAUGCGAAAGUAUAUUGAUUAGUUUUGGAGUACUCGUGGUCG
In short: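 Fitness was computed with DiMSum as the error-weighted combination of replicate fold changes, kanamycin versus none, each normalised to wild type. The library randomised all eight intron nucleotides of the P1ex region, with the intron placed in the knt kanamycin-resistance gene on pET-22b(+) in E. coli BL21(DE3). Six replicate transformations were grown overnight at 37°C or 30°C on LB agar with or without 25 μg/mL kanamycin, plus 100 μg/mL carbenicillin, 50 μM IPTG and 0.2% rhamnose. Pooled colonies were amplicon-sequenced on an Illumina HiSeq 2500.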

Row | Sequence | self-splicing fitness (ln) (30 °C) | self-splicing fitness (ln) (37 °C)
1 | CUACAGCAAUAUUACGGUUG | -1.78 ± 0.078 | -1.73 ± 0.091
2 | CUACAGCAAUAUUACGUAUU | -4.19 ± 0.2 | -2.94 ± 0.18
3 | CUACAGCAAUAUUACGUCAG | -1.55 ± 0.12 | -1.18 ± 0.13
4 | CUACAGCAAUAUUACGUCAU | -4.33 ± 0.22 | -3.72 ± 0.19
5 | CUACAGCAAUAUUACGUCGC | -4.05 ± 0.3 | -2.11 ± 0.23
6 | CUACAGCAAUAUUACGUGCA | -3.73 ± 0.35 | -2.5 ± 0.18
7 | CUACAGCAAUAUUACGUGGC | -3.68 ± 0.29 | -2.44 ± 0.32
8 | CUACAGCAAUAUUACGUUAG | -3.78 ± 0.23 | -2.54 ± 0.14
9 | CUACAGCAAUAUUACGUUCG | -0.275 ± 0.063 | 0.0364 ± 0.083
10 | CUACAGCAAUAUUACGUUGU | -3.66 ± 0.14 | -3.95 ± 0.21
11 | CUACAGCAAUAUUACGUUUA | -3.39 ± 0.22 | -2.86 ± 0.19
12 | CUACAGCAAUAUUACGUUUU | -4.17 ± 0.18 | -3.26 ± 0.22
13 | CUAGAGCAAUAUUACGAAAA | -1.94 ± 0.44 | –
14 | CUAGAGCAAUAUUACGAAGG | -1.22 ± 0.12 | -0.403 ± 0.15
15 | CUAGAGCAAUAUUACGACCC | -1.62 ± 0.38 | –
16 | CUAGAGCAAUAUUACGACCG | 0.13 ± 0.13 | 0.707 ± 0.18
17 | CUAGAGCAAUAUUACGACGG | -0.119 ± 0.12 | 0.393 ± 0.17
18 | CUAGAGCAAUAUUACGAGCG | 0.131 ± 0.1 | 0.74 ± 0.12
19 | CUAGAGCAAUAUUACGCCUU | -3.42 ± 0.19 | -0.994 ± 0.24
20 | CUAGAGCAAUAUUACGCGAA | -3.1 ± 0.38 | -2.09 ± 0.43
21 | CUAGAGCAAUAUUACGCUAA | -3 ± 0.23 | -2.49 ± 0.25
22 | CUAGAGCAAUAUUACGCUCU | -2.43 ± 0.28 | -2.8 ± 0.43
23 | CUAGAGCAAUAUUACGGCCG | -0.252 ± 0.15 | 0.456 ± 0.27
24 | CUAGAGCAAUAUUACGGCGU | -4.02 ± 0.26 | -0.833 ± 0.16
25 | CUAGAGCAAUAUUACGGGGU | – | -2.6 ± 0.3

Row | Sequence | self-splicing fitness (ln) (30 °C) | self-splicing fitness (ln) (37 °C)
26 | CUAGAGCAAUAUUACGGGUC | -4.31 ± 0.25 | -3.61 ± 0.39
27 | CUAGAGCAAUAUUACGGUGA | -3.58 ± 0.16 | -1.46 ± 0.17
28 | CUAGAGCAAUAUUACGUAGC | – | -1.49 ± 0.27
29 | CUAGAGCAAUAUUACGUCAU | -4.42 ± 0.28 | -2.58 ± 0.18
30 | CUAGAGCAAUAUUACGUCGU | -3.73 ± 0.42 | –
31 | CUAGAGCAAUAUUACGUCUA | -1.15 ± 0.12 | -0.248 ± 0.18
32 | CUAGAGCAAUAUUACGUGAG | -0.395 ± 0.074 | 0.0704 ± 0.095
33 | CUAGAGCAAUAUUACGUUGU | -3.77 ± 0.2 | -2.5 ± 0.22
34 | CUAGAGCAAUAUUACGUUUA | -4.4 ± 0.24 | -0.83 ± 0.17
35 | CUAUAGCAAUAUUACGACAC | -2.95 ± 0.34 | -1.88 ± 0.28
36 | CUAUAGCAAUAUUACGAGGA | -3.62 ± 0.41 | -1.73 ± 0.31
37 | CUAUAGCAAUAUUACGAGUG | -0.752 ± 0.071 | 0.361 ± 0.1
38 | CUAUAGCAAUAUUACGAGUU | -3.04 ± 0.16 | -0.864 ± 0.18
39 | CUAUAGCAAUAUUACGAUAA | -1.1 ± 0.11 | -0.839 ± 0.17
40 | CUAUAGCAAUAUUACGCAAG | -3.11 ± 0.2 | -2.22 ± 0.18
41 | CUAUAGCAAUAUUACGCAUU | -5.27 ± 0.38 | -2.95 ± 0.31
42 | CUAUAGCAAUAUUACGCCGC | – | -2.27 ± 0.41
43 | CUAUAGCAAUAUUACGCGGA | -1.13 ± 0.49 | –
44 | CUAUAGCAAUAUUACGGAGG | -2.7 ± 0.17 | 0.224 ± 0.16
45 | CUAUAGCAAUAUUACGGAUA | – | -2.24 ± 0.37
46 | CUAUAGCAAUAUUACGGCAA | -3.31 ± 0.29 | -2.63 ± 0.45
47 | CUAUAGCAAUAUUACGGCAU | -3.11 ± 0.25 | -2.37 ± 0.24
48 | CUAUAGCAAUAUUACGGCUC | -3.46 ± 0.36 | -2.47 ± 0.48
49 | CUAUAGCAAUAUUACGGGCU | -2.63 ± 0.19 | -3.38 ± 0.39
50 | CUAUAGCAAUAUUACGUGCA | -3.24 ± 0.18 | -2.37 ± 0.19
